# Measurements published in patent publication US20230357348A1 (AstraZeneca / MedImmune, published 2023).
# Starred links: 1 amine or outer side, 2 acyl side, 3 side chain; linkers in the order of their positions; H or OH if unused. Non-standard residues stand in square brackets, D forms with d. Groups on a side chain read outwards from the residue. No end group written: not given here. *: point of attachment. C18 diacid = O=C(O)CCCCCCCCCCCCCCCCC(=O)*; γGlu = O=C(O)[C@H](CCC(=O)[*:2])N[*:1]; αMeF = C[C@](N)(Cc1ccccc1)C(=O)O; AEEA = NCCOCCOCC(=O)O; Aib = CC(C)(N)C(=O)O
# B1: Peptide 420 (peptide)
# peptide: H[Aib]QGTFTSDVSK[αMeF]LDKK([AEEA-AEEA-γGlu-C18 diacid])RAQDFVRWLL[Aib]E-NH2
# modifications: N-terminus assumed
# SMILES: CC(C)C[C@H](NC(=O)[C@H](Cc1c[nH]c2ccccc12)NC(=O)[C@H](CCCNC(=N)N)NC(=O)[C@@H](NC(=O)[C@H](Cc1ccccc1)NC(=O)[C@H](CC(=O)O)NC(=O)[C@H](CCC(N)=O)NC(=O)[C@H](C)NC(=O)[C@H](CCCNC(=N)N)NC(=O)[C@H](CCCCNC(=O)COCCOCCNC(=O)COCCOCCNC(=O)CC[C@H](NC(=O)CCCCCCCCCCCCCCCCC(=O)O)C(=O)O)NC(=O)[C@H](CCCCN)NC(=O)[C@H](CC(=O)O)NC(=O)[C@H](CC(C)C)NC(=O)[C@](C)(Cc1ccccc1)NC(=O)[C@H](CCCCN)NC(=O)[C@H](CO)NC(=O)[C@@H](NC(=O)[C@H](CC(=O)O)NC(=O)[C@H](CO)NC(=O)[C@@H](NC(=O)[C@H](Cc1ccccc1)NC(=O)[C@@H](NC(=O)CNC(=O)[C@H](CCC(N)=O)NC(=O)C(C)(C)NC(=O)[C@@H](N)Cc1c[nH]cn1)[C@@H](C)O)[C@@H](C)O)C(C)C)C(C)C)C(=O)N[C@@H](CC(C)C)C(=O)NC(C)(C)C(=O)N[C@@H](CCC(=O)O)C(N)=O
# B2: Peptide 425 (peptide)
# peptide: H[Aib]QGTFTSDVSK[αMeF]LDKK([AEEA-AEEA-γGlu-C18 diacid])RAQDFVRWLKA[Aib]G-OH
# modifications: N-terminus assumed
# SMILES: CC(C)C[C@H](NC(=O)[C@H](Cc1c[nH]c2ccccc12)NC(=O)[C@H](CCCNC(=N)N)NC(=O)[C@@H](NC(=O)[C@H](Cc1ccccc1)NC(=O)[C@H](CC(=O)O)NC(=O)[C@H](CCC(N)=O)NC(=O)[C@H](C)NC(=O)[C@H](CCCNC(=N)N)NC(=O)[C@H](CCCCNC(=O)COCCOCCNC(=O)COCCOCCNC(=O)CC[C@H](NC(=O)CCCCCCCCCCCCCCCCC(=O)O)C(=O)O)NC(=O)[C@H](CCCCN)NC(=O)[C@H](CC(=O)O)NC(=O)[C@H](CC(C)C)NC(=O)[C@](C)(Cc1ccccc1)NC(=O)[C@H](CCCCN)NC(=O)[C@H](CO)NC(=O)[C@@H](NC(=O)[C@H](CC(=O)O)NC(=O)[C@H](CO)NC(=O)[C@@H](NC(=O)[C@H](Cc1ccccc1)NC(=O)[C@@H](NC(=O)CNC(=O)[C@H](CCC(N)=O)NC(=O)C(C)(C)NC(=O)[C@@H](N)Cc1c[nH]cn1)[C@@H](C)O)[C@@H](C)O)C(C)C)C(C)C)C(=O)N[C@@H](CCCCN)C(=O)N[C@@H](C)C(=O)NC(C)(C)C(=O)NCC(=O)O
# B3: Peptide 419 (peptide)
# peptide: H[Aib]QGTFTSDVSK[αMeF]LDTK([AEEA-AEEA-γGlu-C18 diacid])RAQDFVRWLE[Aib]E-OH
# modifications: N-terminus assumed
# SMILES: CC(C)C[C@H](NC(=O)[C@H](Cc1c[nH]c2ccccc12)NC(=O)[C@H](CCCNC(=N)N)NC(=O)[C@@H](NC(=O)[C@H](Cc1ccccc1)NC(=O)[C@H](CC(=O)O)NC(=O)[C@H](CCC(N)=O)NC(=O)[C@H](C)NC(=O)[C@H](CCCNC(=N)N)NC(=O)[C@H](CCCCNC(=O)COCCOCCNC(=O)COCCOCCNC(=O)CC[C@H](NC(=O)CCCCCCCCCCCCCCCCC(=O)O)C(=O)O)NC(=O)[C@@H](NC(=O)[C@H](CC(=O)O)NC(=O)[C@H](CC(C)C)NC(=O)[C@](C)(Cc1ccccc1)NC(=O)[C@H](CCCCN)NC(=O)[C@H](CO)NC(=O)[C@@H](NC(=O)[C@H](CC(=O)O)NC(=O)[C@H](CO)NC(=O)[C@@H](NC(=O)[C@H](Cc1ccccc1)NC(=O)[C@@H](NC(=O)CNC(=O)[C@H](CCC(N)=O)NC(=O)C(C)(C)NC(=O)[C@@H](N)Cc1c[nH]cn1)[C@@H](C)O)[C@@H](C)O)C(C)C)[C@@H](C)O)C(C)C)C(=O)N[C@@H](CCC(=O)O)C(=O)NC(C)(C)C(=O)N[C@@H](CCC(=O)O)C(=O)O
# B4: Peptide 424 (peptide)
# peptide: H[Aib]QGTFTSDVSK[αMeF]LDKK([AEEA-AEEA-γGlu-C18 diacid])RAQDFVRWLL[Aib]TK-OH
# modifications: N-terminus assumed
# SMILES: CC(C)C[C@H](NC(=O)[C@H](Cc1c[nH]c2ccccc12)NC(=O)[C@H](CCCNC(=N)N)NC(=O)[C@@H](NC(=O)[C@H](Cc1ccccc1)NC(=O)[C@H](CC(=O)O)NC(=O)[C@H](CCC(N)=O)NC(=O)[C@H](C)NC(=O)[C@H](CCCNC(=N)N)NC(=O)[C@H](CCCCNC(=O)COCCOCCNC(=O)COCCOCCNC(=O)CC[C@H](NC(=O)CCCCCCCCCCCCCCCCC(=O)O)C(=O)O)NC(=O)[C@H](CCCCN)NC(=O)[C@H](CC(=O)O)NC(=O)[C@H](CC(C)C)NC(=O)[C@](C)(Cc1ccccc1)NC(=O)[C@H](CCCCN)NC(=O)[C@H](CO)NC(=O)[C@@H](NC(=O)[C@H](CC(=O)O)NC(=O)[C@H](CO)NC(=O)[C@@H](NC(=O)[C@H](Cc1ccccc1)NC(=O)[C@@H](NC(=O)CNC(=O)[C@H](CCC(N)=O)NC(=O)C(C)(C)NC(=O)[C@@H](N)Cc1c[nH]cn1)[C@@H](C)O)[C@@H](C)O)C(C)C)C(C)C)C(=O)N[C@@H](CC(C)C)C(=O)NC(C)(C)C(=O)N[C@H](C(=O)N[C@@H](CCCCN)C(=O)O)[C@@H](C)O
# B5: Peptide 422 (peptide)
# peptide: H[Aib]QGTFTSDVSK[αMeF]LDRK([AEEA-AEEA-γGlu-C18 diacid])RAQDFVRWLL[Aib]TE-NH2
# modifications: N-terminus assumed
# SMILES: CC(C)C[C@H](NC(=O)[C@H](Cc1c[nH]c2ccccc12)NC(=O)[C@H](CCCNC(=N)N)NC(=O)[C@@H](NC(=O)[C@H](Cc1ccccc1)NC(=O)[C@H](CC(=O)O)NC(=O)[C@H](CCC(N)=O)NC(=O)[C@H](C)NC(=O)[C@H](CCCNC(=N)N)NC(=O)[C@H](CCCCNC(=O)COCCOCCNC(=O)COCCOCCNC(=O)CC[C@H](NC(=O)CCCCCCCCCCCCCCCCC(=O)O)C(=O)O)NC(=O)[C@H](CCCNC(=N)N)NC(=O)[C@H](CC(=O)O)NC(=O)[C@H](CC(C)C)NC(=O)[C@](C)(Cc1ccccc1)NC(=O)[C@H](CCCCN)NC(=O)[C@H](CO)NC(=O)[C@@H](NC(=O)[C@H](CC(=O)O)NC(=O)[C@H](CO)NC(=O)[C@@H](NC(=O)[C@H](Cc1ccccc1)NC(=O)[C@@H](NC(=O)CNC(=O)[C@H](CCC(N)=O)NC(=O)C(C)(C)NC(=O)[C@@H](N)Cc1c[nH]cn1)[C@@H](C)O)[C@@H](C)O)C(C)C)C(C)C)C(=O)N[C@@H](CC(C)C)C(=O)NC(C)(C)C(=O)N[C@H](C(=O)N[C@@H](CCC(=O)O)C(N)=O)[C@@H](C)O
# B6: Peptide 421 (peptide)
# peptide: H[Aib]QGTFTSDVSK[αMeF]LDRK([AEEA-AEEA-γGlu-C18 diacid])RAQDFVRWLL[Aib]TE-OH
# modifications: N-terminus assumed
# SMILES: CC(C)C[C@H](NC(=O)[C@H](Cc1c[nH]c2ccccc12)NC(=O)[C@H](CCCNC(=N)N)NC(=O)[C@@H](NC(=O)[C@H](Cc1ccccc1)NC(=O)[C@H](CC(=O)O)NC(=O)[C@H](CCC(N)=O)NC(=O)[C@H](C)NC(=O)[C@H](CCCNC(=N)N)NC(=O)[C@H](CCCCNC(=O)COCCOCCNC(=O)COCCOCCNC(=O)CC[C@H](NC(=O)CCCCCCCCCCCCCCCCC(=O)O)C(=O)O)NC(=O)[C@H](CCCNC(=N)N)NC(=O)[C@H](CC(=O)O)NC(=O)[C@H](CC(C)C)NC(=O)[C@](C)(Cc1ccccc1)NC(=O)[C@H](CCCCN)NC(=O)[C@H](CO)NC(=O)[C@@H](NC(=O)[C@H](CC(=O)O)NC(=O)[C@H](CO)NC(=O)[C@@H](NC(=O)[C@H](Cc1ccccc1)NC(=O)[C@@H](NC(=O)CNC(=O)[C@H](CCC(N)=O)NC(=O)C(C)(C)NC(=O)[C@@H](N)Cc1c[nH]cn1)[C@@H](C)O)[C@@H](C)O)C(C)C)C(C)C)C(=O)N[C@@H](CC(C)C)C(=O)NC(C)(C)C(=O)N[C@H](C(=O)N[C@@H](CCC(=O)O)C(=O)O)[C@@H](C)O
# B7: Peptide 423 (peptide)
# peptide: H[Aib]QGTFTSDVSK[αMeF]LDKK([AEEA-AEEA-γGlu-C18 diacid])RAQDFVRWLK[Aib]TE-OH
# modifications: N-terminus assumed
# SMILES: CC(C)C[C@H](NC(=O)[C@H](Cc1c[nH]c2ccccc12)NC(=O)[C@H](CCCNC(=N)N)NC(=O)[C@@H](NC(=O)[C@H](Cc1ccccc1)NC(=O)[C@H](CC(=O)O)NC(=O)[C@H](CCC(N)=O)NC(=O)[C@H](C)NC(=O)[C@H](CCCNC(=N)N)NC(=O)[C@H](CCCCNC(=O)COCCOCCNC(=O)COCCOCCNC(=O)CC[C@H](NC(=O)CCCCCCCCCCCCCCCCC(=O)O)C(=O)O)NC(=O)[C@H](CCCCN)NC(=O)[C@H](CC(=O)O)NC(=O)[C@H](CC(C)C)NC(=O)[C@](C)(Cc1ccccc1)NC(=O)[C@H](CCCCN)NC(=O)[C@H](CO)NC(=O)[C@@H](NC(=O)[C@H](CC(=O)O)NC(=O)[C@H](CO)NC(=O)[C@@H](NC(=O)[C@H](Cc1ccccc1)NC(=O)[C@@H](NC(=O)CNC(=O)[C@H](CCC(N)=O)NC(=O)C(C)(C)NC(=O)[C@@H](N)Cc1c[nH]cn1)[C@@H](C)O)[C@@H](C)O)C(C)C)C(C)C)C(=O)N[C@@H](CCCCN)C(=O)NC(C)(C)C(=O)N[C@H](C(=O)N[C@@H](CCC(=O)O)C(=O)O)[C@@H](C)O
# Target: human GLP-1 receptor (hGLP-1R) (human, UniProt P43220 24-463)
# Test: cell-based or functional assay
row,hGLP-1R EC50 (pM),Binder
1,23.1 pM,B1
2,11.5 pM,B2
3,96.9 pM,B3
4,15.5 pM,B4
5,27.6 pM,B5
6,87.3 pM,B6
7,26.1 pM,B7

# Target: human glucagon receptor (hGCGR) (human, UniProt P47871 26-477)
# Test: cell-based or functional assay
# Chain of human glucagon receptor (hGCGR) (P47871 26-477): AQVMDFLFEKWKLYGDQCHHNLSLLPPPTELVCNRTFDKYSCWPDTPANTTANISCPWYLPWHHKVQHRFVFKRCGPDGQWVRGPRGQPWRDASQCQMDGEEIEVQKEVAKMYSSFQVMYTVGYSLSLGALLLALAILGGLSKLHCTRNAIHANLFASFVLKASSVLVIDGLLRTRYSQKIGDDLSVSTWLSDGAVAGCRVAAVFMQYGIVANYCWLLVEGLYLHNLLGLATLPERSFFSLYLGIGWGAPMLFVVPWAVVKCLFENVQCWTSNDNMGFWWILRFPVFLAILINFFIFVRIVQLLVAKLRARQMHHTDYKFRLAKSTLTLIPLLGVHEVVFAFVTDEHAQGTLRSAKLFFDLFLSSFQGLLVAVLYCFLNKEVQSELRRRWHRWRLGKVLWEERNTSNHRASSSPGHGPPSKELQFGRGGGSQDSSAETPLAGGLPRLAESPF
row,hGluc-R EC50 (pM),Binder
1,36.9 pM,B1
2,827 pM,B2
3,264 pM,B3
4,129 pM,B4
5,123 pM,B5
6,180 pM,B6
7,2220 pM,B7
